Experimental data reported in US12187807B2, “Antibody molecules to C5AR1 and uses thereof” (Visterra, Inc., priority 2020, dated 2025).

T1: C5aR1 (C5aR1-U937 cells) (Homo sapiens, UniProt P21730, K279N)
T1 construct: expressed in transfected cells
T1 sequence (P21730 with tags, fused parts or gaps K279N limits assumed): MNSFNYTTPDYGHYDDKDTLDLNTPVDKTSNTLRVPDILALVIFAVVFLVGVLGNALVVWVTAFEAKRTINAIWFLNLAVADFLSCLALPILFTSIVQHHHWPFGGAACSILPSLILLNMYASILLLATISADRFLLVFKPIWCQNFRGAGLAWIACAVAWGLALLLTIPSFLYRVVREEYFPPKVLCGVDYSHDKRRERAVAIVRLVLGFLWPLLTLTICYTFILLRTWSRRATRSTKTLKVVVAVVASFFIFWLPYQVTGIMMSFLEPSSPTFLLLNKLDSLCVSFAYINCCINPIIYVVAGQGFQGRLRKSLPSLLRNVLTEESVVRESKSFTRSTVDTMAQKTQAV

T2: C5aR1 (human neutrophils) (Homo sapiens, UniProt P21730)
T2 construct: neutrophils isolated from whole blood; host or cells: human neutrophils (cryopreserved, or isolated from whole blood)
T2 sequence (P21730 1-350): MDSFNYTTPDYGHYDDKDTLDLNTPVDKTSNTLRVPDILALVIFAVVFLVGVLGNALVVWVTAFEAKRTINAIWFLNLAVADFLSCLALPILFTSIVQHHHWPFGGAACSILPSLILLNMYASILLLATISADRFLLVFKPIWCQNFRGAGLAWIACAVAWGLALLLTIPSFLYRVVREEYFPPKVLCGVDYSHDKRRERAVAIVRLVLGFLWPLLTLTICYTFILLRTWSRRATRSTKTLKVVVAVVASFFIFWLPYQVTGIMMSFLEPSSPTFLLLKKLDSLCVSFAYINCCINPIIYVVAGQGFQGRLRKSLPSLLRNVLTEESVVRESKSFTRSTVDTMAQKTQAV

T3: C5aR1 on human neutrophils (Homo sapiens, UniProt P21730)
T3 construct: neutrophils isolated from whole blood; host or cells: human neutrophils (cryopreserved, or isolated from whole blood)
T3 sequence (P21730 1-350): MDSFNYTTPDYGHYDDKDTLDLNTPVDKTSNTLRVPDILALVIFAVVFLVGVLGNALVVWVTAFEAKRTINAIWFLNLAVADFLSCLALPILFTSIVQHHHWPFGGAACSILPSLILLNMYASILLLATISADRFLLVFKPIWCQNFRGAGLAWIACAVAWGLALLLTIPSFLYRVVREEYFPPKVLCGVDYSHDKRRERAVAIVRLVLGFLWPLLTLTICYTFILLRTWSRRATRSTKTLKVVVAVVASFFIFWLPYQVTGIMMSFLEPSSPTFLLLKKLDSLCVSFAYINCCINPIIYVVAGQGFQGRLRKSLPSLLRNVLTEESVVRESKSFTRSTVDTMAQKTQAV


How the values were obtained:
[1] = molecular target: T1, C5aR1 (C5aR1-U937 cells); experiment: C5a induced chemotaxis (transwell), C5aR1-U937 cells; assay type: cell-based; conditions: for inhibition of cell chemotaxis: C5aR1-U937 cells, 1, 10, or 100 nM antibody, C5a 10^−6 to 10^−9.5 M; for inhibition of chemotaxis as single agents: FIGS. 18A-18C, cells not given
Excerpt: (§1) One of the primary mechanisms by which neutrophils migrate to the site of inflammation is by chemotaxis induced by a C5a/C5adesArg gradient is detected by C5aR1 signaling. Anti-C5aR1 antibodies were thus assessed in a chemotaxis assay for their ability to block C5a induced migration of neutrophils. The assay involved cell migration in a double chamber well separated by filters. The cells and inhibitors were applied into the upper chamber and the lower chamber was filled with the chemoattractant, causing the cells to migrate to the lower chamber. The inhibition activity was evaluated by counting the migrated cell numbers. Specifically, a titration of C5a was added to the bottom chamber a 96 transwell plate. Cells expressing human C5aR1 (C5aR1-U937 cells or human neutrophils) were incubated with or without antagonist and then seeded into the top chamber of the transwell plate. The cells were incubated for 2 hours. Cells that migrated to the bottom chamber were quantified using the CyQUANT cell proliferation kit following the manufacturer's protocol. The assay was performed using engineered cells stably expressing C5aR1 as well as using human neutrophils.
as §1, with “Anti-C5aR1” for “One of the primary mechanisms by which neutrophils migrate to the site of inflammation is by chemotaxis induced by a C5a/C5adesArg gradient is detected by C5aR1 signaling. Anti-C5aR1”, “were” for “were thus”
In a first experiment, C5aR1-U937 cells were seeded into the top chamber of a 96 Transwell plate in the presence of no antibody (antagonist), or of 1, 10, or 100 nM antibody (antagonist).

[2] = molecular target: T2, C5aR1 (human neutrophils); experiment: C5a induced chemotaxis (transwell), human neutrophils; assay type: cell-based; conditions: 1, 10, or 100 nM antagonist, C5a 10^−6 to 10^−9.5 M
Excerpt: as §1, with “The assay was performed using engineered cells stably expressing C5aR1 as well as using human neutrophils.” left out
Anti-C5aR1 antibodies were assessed in a chemotaxis assay for their ability to block C5a induced migration of neutrophils. […] The inhibition activity was evaluated by counting the migrated cell numbers. […] Cells that migrated to the bottom chamber were quantified using the CyQUANT cell proliferation kit following the manufacturer's protocol. […]

[3] = molecular target: T3, C5aR1 on human neutrophils; experiment: Cell surface binding (flow cytometry), human neutrophils; conditions: half-log titrations 10^−7.5 to 10^−12 M, vs isotype controls
Method: Follow up screening to ensure specificity was performed by measuring cell surface binding to cells expressing, for example, human C5aR1, human C5aR2, mouse C5aR1, and control cells that were mock transfected. Briefly, cell surface binding was performed on various C5aR1 expressing cell lines (transiently expressed Expi293 cells, stable C5aR1-U937 cells, and neutrophils isolated from whole blood). Briefly, a titration of antibody diluted in flow buffer (1×PBS with 2% fetal bovine serum) was incubated with cells for 1 hour at 4° C. Cells were washed twice with flow buffer. Anti-human-APC secondary antibody was diluted 1:400 in flow buffer and incubated with cells for 30 minutes. Cells were washed twice with flow buffer and resuspended in 100 μL of flow buffer. Fluorescence was measured using the iQue Screen Plus flow cytometer.
Exemplary anti-C5aR1 antibodies generated as described in Example 1 were tested for binding to human neutrophils. Briefly, cryopreserved human neutrophils were obtained from Asarte Biologics.

| inhibition of cell chemotaxis [1] | inhibition of human neutrophil chemotaxis [2] | level of binding to human neutrophils [3] | Molecule | inhibition of chemotaxis as single agents [1] |
| --- | --- | --- | --- | --- |
| strongest effects | – | – | clone 583: anti-C5aR1 Site I antibody; VH SEQ ID NO: 536, VL SEQ ID NO: 595 (antibody, V domains shown) VH: EVQLVESGGGLVKPGGSLKLSCAASGFTFNAYAMSWVRQTPEKRLEWVASISTGGNTYCPDSVKDRFTVSRDNVRNILYLQMSSLRSEDTAMYYCTRGYQRFSGFAYWGQGTLVTVS VL: DVVMTQTPLSPPVSLGYQASISCRSSQSLVHSNGNTYLNWYLQKPGQSPKLLIYKVSNRLSGVPDRFSGSGSGTDFTLKISRVETEDLGVYFCSQSTHVPYTFGGGTKLEIK | inhibited chemotaxis as single agents in a dose-dependent manner |
| strongest effects | strongest effects | highest level of neutrophil binding | clone 329: anti-C5aR1 Site II antibody; VH SEQ ID NO: 492, VL SEQ ID NO: 552 (antibody, V domains shown) VH: QVQLQQSGAELTKPGASVKLSCKASGYTFTNYWMHWVKQRPGQGLEWIGYLNPSSGYTKYNQKFKDKATLTADKSSSTAYMQLNSLTYEDSAVYYCTRSGGDNYGNPYYFDRWGQGTTVTVSS VL: DVVMTQTPLSLTVSLGDQASISCRSSQSLVHSNGNTYLHWYLQKPGQSPKFLIYKVSNRFSGVPDRFSGSGSGTDFRLKISRVEAEDLGVYFCSQSTLVPLTFGAGTKLEIK | inhibited chemotaxis as single agents in a dose-dependent manner |
| – | – | highest level of neutrophil binding | clone 66: anti-C5aR1 Site I antibody; VH SEQ ID NO: 483, VL SEQ ID NO: 543 (antibody, V domains shown) VH: QVQLQQSDAELVKPGASVKISCKASGYTFIDHAIHWVKQRPEQGLEWIGYISPGNGEIKYNEKFKAKATLTADKSSSAAYMQLNSLTSADSAVYFCKRALFYYTGKYQPMDYWGQGTTVTDSS VL: DIVMTQSQKFMSTTAGDRVSITCKASQNVGSAVVWYQQKPGRSPKLLIYSSSIRYTGVPDRFTGSGSGTDFTLTINSVQSEDLADYFCQQYNSFPLTFGAGTKLEIK | – |
